{
  "source": "paper doi:10.1101/2024.06.06.597810",
  "target": "Biotin-labeled MHV stem helix peptide (MHV)",
  "test": "BLI",
  "data": [
    {"substance": "S2P6 WT Fab", "values": [
      {"measurement": "Kd", "value": 70.4, "unit": "nM"}
    ]}
  ]
}
